Patent publication US20160115235A1 (ARES TRADING S A, published 2016)
Positions count from the first letter of the chain named.

T1: cynomolgus monkey (Macaca fascicularis) CXCR5 (cynomolgus monkey (Macaca fascicularis), UniProt P32302 1-372 (human entry))
T1 construct: Full length, on stably transfected cells (CHO, L1.2) or native on cynomolgus B cells in whole blood; also called cCXCR5
T1 chain: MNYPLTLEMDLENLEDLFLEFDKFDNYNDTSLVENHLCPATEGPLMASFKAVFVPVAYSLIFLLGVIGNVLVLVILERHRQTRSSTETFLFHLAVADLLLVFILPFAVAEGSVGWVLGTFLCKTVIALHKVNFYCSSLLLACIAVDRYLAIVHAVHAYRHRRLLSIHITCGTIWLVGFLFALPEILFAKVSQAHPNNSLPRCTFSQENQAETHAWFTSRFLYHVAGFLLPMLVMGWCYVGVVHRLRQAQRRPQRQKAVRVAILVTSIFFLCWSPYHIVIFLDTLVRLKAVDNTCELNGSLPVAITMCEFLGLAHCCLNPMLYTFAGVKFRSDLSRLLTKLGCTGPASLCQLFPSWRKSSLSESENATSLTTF

T2: human CXCR5 (human, UniProt P32302 1-372)
T2 sequence: T1 chain with L19W, F21L, K23R, F24L, F180L, A193G, P195H, V285A, E295K, K357R

T3: rat CXCR5 (rat, UniProt P34997 1-374)
T3 construct: whole, on cells
T3 sequence (looked up): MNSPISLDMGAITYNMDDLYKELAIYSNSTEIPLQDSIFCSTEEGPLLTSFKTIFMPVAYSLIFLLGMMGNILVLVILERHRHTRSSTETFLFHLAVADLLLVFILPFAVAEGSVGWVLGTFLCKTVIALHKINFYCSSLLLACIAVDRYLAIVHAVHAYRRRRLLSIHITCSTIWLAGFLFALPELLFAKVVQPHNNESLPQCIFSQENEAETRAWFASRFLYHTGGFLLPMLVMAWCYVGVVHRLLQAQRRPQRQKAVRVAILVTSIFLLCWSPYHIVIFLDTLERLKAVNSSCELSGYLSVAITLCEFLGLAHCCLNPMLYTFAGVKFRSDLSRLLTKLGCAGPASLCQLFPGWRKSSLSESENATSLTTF

T4: mouse CXCR5 (mouse, UniProt Q04683 1-374)
T4 construct: whole, on cells
T4 sequence (looked up): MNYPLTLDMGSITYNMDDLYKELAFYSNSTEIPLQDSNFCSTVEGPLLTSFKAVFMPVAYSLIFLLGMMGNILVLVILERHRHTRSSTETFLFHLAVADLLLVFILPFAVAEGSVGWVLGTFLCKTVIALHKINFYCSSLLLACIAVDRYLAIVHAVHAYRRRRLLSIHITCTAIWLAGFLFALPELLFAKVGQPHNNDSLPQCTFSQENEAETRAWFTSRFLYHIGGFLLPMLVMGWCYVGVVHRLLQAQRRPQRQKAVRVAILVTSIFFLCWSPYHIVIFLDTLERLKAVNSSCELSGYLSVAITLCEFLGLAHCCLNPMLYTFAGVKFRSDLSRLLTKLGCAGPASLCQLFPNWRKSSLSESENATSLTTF

B1: mAb 80D11 (antibody, V domains shown)
VH: EVQLLESGGGLVQPGGSLRLSCAASGFTFSHYWMQWVRQAPGKGLEWVSSISSSGGKTRYADSVKGRFTISRDNSKNTLYLQMNSLRAEDTAVYYCATAGYSSGWGQGTLVTVSS
VL: QSALTQPASVSGSPGQSITISCTGTSSDVGGYNYLSWYQQHPGKAPKLMIYGVSNRPSGVSTRFSGSKSGNTASLTISGLQAEDEADYYCSSYTSTGTRVFGGGTRLTVL
B2: anti-CXCR5 40C01-VH2-Vk3 as IgG4 (antibody)
heavy: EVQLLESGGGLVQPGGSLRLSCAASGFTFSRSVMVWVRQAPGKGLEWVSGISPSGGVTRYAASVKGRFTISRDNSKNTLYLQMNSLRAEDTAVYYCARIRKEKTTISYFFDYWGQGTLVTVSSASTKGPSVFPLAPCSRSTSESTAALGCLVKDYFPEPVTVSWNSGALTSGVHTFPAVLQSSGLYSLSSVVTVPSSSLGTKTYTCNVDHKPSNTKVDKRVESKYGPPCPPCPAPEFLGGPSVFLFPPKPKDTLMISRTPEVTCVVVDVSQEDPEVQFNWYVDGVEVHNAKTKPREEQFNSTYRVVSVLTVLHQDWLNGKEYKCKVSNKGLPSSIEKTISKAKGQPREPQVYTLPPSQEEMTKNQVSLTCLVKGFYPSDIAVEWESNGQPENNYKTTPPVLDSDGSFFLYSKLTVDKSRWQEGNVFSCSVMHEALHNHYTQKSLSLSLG
light: DIQMTQSPSSLSASVGDRVTITCRASQGVDAYVAWYQQKPGKVPKLLIYSTSTLASGVPSRFSGSGSGTDFTLTISSLQPEDVATYYCQSHNAAVVTFGQGTRLEIKRTVAAPSVFIFPPSDEQLKSGTASVVCLLNNFYPREAKVQWKVDNALQSGNSQESVTEQDSKDSTYSLSSTLTLSKADYEKHKVYACEVTHQGLSSPVTKSFNRGEC
B3: anti-CXCR5 40C01-VH1-Vk3-IgG1 (antibody)
heavy: not shown
light: B2 light
B4: anti-CXCR5 40C01-VH1-Vk3-IgG2_DI-NQ-HC2h (antibody)
heavy: EVQLLESGGGLVQPGGSLRLSCAASGFTFSRYVMVWVRQAPGKGLEWVSGISPSGGVTRYAASVKGRFTISRDNSKNTLYLQMNSLRAEDTAVYYCARIRKEMTTISYFFDYWGQGTLVTVSSASTKGPSVFPLAPCSRSTSESTAALGCLVKDYFPEPVTVSWNSGALTSGVHTFPAVLQSSGLYSLSSVVTVPSSNFGTQTYTCNVDHKPSNTKVDKTVEPKSSDKTHTCPPCPAPPVAGPSVFLFPPKPKDTLMISRTPEVTCVVVDVSHEDPEVQFNWYVDGVEVHNAKTKPREEQAQSTFRVVSVLTVVHQDWLNGKEYKCKVSNKGLPAPIEKTISKTKGQPREPQVYTLPPSREEMTKNQVSLTCLVKGFYPSDIAVEWESNGQPENNYKTTPPMLDSDGSFFLYSKLTVDKSRWQQGNVFSCSVMHEALHNHYTQKSLSLSPG
light: B2 light
notes: Whole antibody, modified human IgG2 (subtype HC2h, WO2009010290), kappa light chain; also called 40C01-VH1-Vk3 as IgG2; VH1-Vk3 (isotype 2)
B5: mAb 12A01 (antibody, V domains shown)
VH: EVQLLESGGGLVQPGGSLRLSCAASGFTFSRYVMVWVRQAPGKGLDWVSGISPSGGVTRYADSVKGRFTISRDNSKNTLYLQMNSLRAEDTAMYYCARIRKEMTTISYFFDYWGQGTLVTVSS
VL: DIQMTQSPDSLSASVGDRVTITCRASQGVDIYVAWYQQKPGKVPKLLMHSASTLASGVPSRFSGRGSGTDFTLTINSLQAEDVATYYCQSHNSAVVTFGQGTRLEIK
B6: mAb 40C01 (antibody, V domains shown)
VH: B5 VH
VL: B5 VL with Q6R, S7A, V43A
notes: also called 40C01 VH-VL; 40C01 parental molecule
B7: anti-CXCR5 40C01-VH2-Vk3 as IgG1 (antibody)
VH: B5 VH with Y32S, D46E, D62A, M93V, M103K
light: B2 light

Assays:
[1] = target: T1, cynomolgus monkey (Macaca fascicularis) …; experiment: FACS on CXCR5 expressing cells
Protocol: (§1) Binding of anti-CXCR5 antibodies to cell lines and primary cells expressing human CXCR5 or species orthologues was assessed by FACS. Briefly, approximately 1×10⁵ CXCR5 expressing cells were suspended in FACS buffer (PBS containing 1% FBS and 0.02% sodium azide) containing increasing concentrations of anti-CXCR5 antibodies ranging from 0-100 μg/ml, and incubated for 20 min at 4° C. Cells were washed and then resuspended in FACS buffer containing PE-labelled goat anti-human IgG (Jackson labs) for 20 min at 4° C. Cells were then washed 3 times and resuspended in 100 μl FACS buffer and analysed on a FACScalibur instrument (BD Sciences). MFI was plotted against antibody concentration and Graph pad prism software was used to calculate EC₅₀ values.

human CXCR5 [2] = target: T2, human CXCR5; experiment: cell-based or functional assay
rat CXCR5 = target: T3, rat CXCR5; experiment: FACS on cells expressing species orthologues
Protocol: as §1

mouse CXCR5 = target: T4, mouse CXCR5; experiment: FACS on cells expressing species orthologues
Protocol: as §1

human CXCR5 [3] = target: T2, human CXCR5; experiment: cell-based or functional assay; remark: listed apart in the source
human CXCR5 [4] = target: T2, human CXCR5; experiment: cell-based or functional assay; remark: listed apart in the source
[5] = target: T1, cynomolgus monkey (Macaca fascicularis) …; experiment: cell-based or functional assay
[6] = target: T1, cynomolgus monkey (Macaca fascicularis) …; experiment: cell-based or functional assay
human CXCR5 [7] = target: T2, human CXCR5; experiment: cell-based or functional assay; remark: listed apart in the source
[8] = target: T1, cynomolgus monkey (Macaca fascicularis) …; experiment: cell-based or functional assay
human CXCR5 [9] = target: T2, human CXCR5; experiment: KinExA, IgG2 mAb equilibrated with HEK-293 cells expressing human CXCR5, n-curve analysis
Protocol: Kinetic Exclusion Assay (KinExA) was used to determine the concentration of the free antibody that remains in solution after equilibrium has been established between the fully human IgG2 (subtype HC2h, as described in WO2009010290) anti-CXCR5 40C01 antibody variants and human CXCR5 expressed on the cell surface of stably transfected HEK-293 cells, from which the equilibrium dissociation constant (Kd) was determined. This method provides a true measure of the affinity/avidity of the antibody to integral membrane proteins like GPCRs.
HEK-293 cells, stably expressing human CXCR5, an integral membrane protein with 7 trans membrane domains, were harvested using Accutase cell detachment solution, resuspended at 2×10⁶ cells/ml and serially diluted 1 in 2 in 15 falcon tubes using KinExA buffer (PBS containing 1 mg/ml BSA and 0.02% NaN₃). An appropriate constant concentration of purified mAb was made in KinExA buffer and an equal volume of the mAb was mixed with the serially diluted cells. […] The cells were then centrifuged and the free mAb present in the supernatant was measured by KinExA using PMMA beads (Sapidyne Instruments, cat#440198) coated with goat anti-human IgG (H+L) (Jackson ImmunoResearch, cat#109-005-003) and DyLight 649-conjugated anti-human secondary antibody (Jackson ImmunoResearch, Goat anti-human Fc, cat#109-495-098) used at 1 μg/ml in KinExA buffer. […]

| Binder | binding result [1] | Mean IC50 (nM) on L1.2/human CXCR5 cells (chemotaxis) (human CXCR5 [2]) [nM] | binding result (rat CXCR5) | binding result (mouse CXCR5) | IC50, inhibition of CXCL13-induced L1.2-CXCR5 chemotaxis (human CXCR5 [3]) [nM] | efficacy of inhibition of CXCL13-stimulated L1.2-CXCR5 chemotaxis (human CXCR5 [4]) [%] | IC50, inhibition of CXCL13-induced L1.2-CXCR5 chemotaxis [5] [nM] | efficacy of inhibition of CXCL13-stimulated L1.2-CXCR5 chemotaxis [6] [%] | IC50, inhibition of human CXCR5-L1.2 cell chemotaxis (human CXCR5 [4]) [nM] | mean IC50, inhibition of CXCL13-stimulated chemotaxis of primary human B cells in human serum (human CXCR5 [4]) [nM] | IC50, inhibition of ERK phosphorylation in whole blood (B cells, CXCL13-stimulated) (human CXCR5 [7]) [nM] | IC50, inhibition of ERK phosphorylation in whole blood (B cells, CXCL13-stimulated) [8] [nM] | Kd (human CXCR5 [9]) [nM] |
| --- | --- | --- | --- | --- | --- | --- | --- | --- | --- | --- | --- | --- | --- |
| B1 | binds | 37 | no binding | no binding |  |  |  |  |  |  |  |  |  |
| B2 |  |  |  |  | 0.103 | 100 |  |  |  |  |  |  |  |
| B3 |  |  |  |  | 1.81 | 100 | 0.19 | 100 | 0.38 | 1.89 | 0.17 |  |  |
| B4 |  |  |  |  | 1.15 | 100 |  |  |  |  | 0.736 | 0.195 | 0.0154 |
| B5 | binds | 2200 | no binding | no binding |  |  |  |  |  |  |  |  |  |
| B6 | binds | 5.6 | no binding | no binding |  |  |  |  |  |  |  |  |  |
| B7 |  |  |  |  | 0.098 | 100 | 0.17 | 100 | 0.05 | 0.34 | 0.45 |  |  |
